The values below are quoted from earlier work in PMC12093155.

The target of this data set is Prx1 (Homo sapiens) (UniProt Q06830).
Chain of Prx1 (Homo sapiens) (Q06830 2-199): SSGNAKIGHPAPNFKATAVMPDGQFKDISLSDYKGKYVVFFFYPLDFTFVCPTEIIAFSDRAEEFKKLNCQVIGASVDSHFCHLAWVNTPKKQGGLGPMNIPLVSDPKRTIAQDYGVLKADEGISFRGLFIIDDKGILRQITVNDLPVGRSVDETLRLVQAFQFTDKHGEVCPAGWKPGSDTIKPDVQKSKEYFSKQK

Chain of Srx (Q9BYN0 whole entry): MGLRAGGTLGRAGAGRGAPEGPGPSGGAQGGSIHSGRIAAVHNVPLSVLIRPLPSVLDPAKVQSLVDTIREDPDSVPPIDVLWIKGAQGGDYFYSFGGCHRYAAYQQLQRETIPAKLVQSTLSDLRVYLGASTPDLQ

Take Srx (from UniProt Q9BYN0): the Kd (usually the free concentration of one partner at which half of the binding sites on the other are occupied at equilibrium, for simple one-to-one binding) is 7 µM.
